First the molecules themselves.
B1: HDV Ribozyme (parent)
chain: GGCCGGCAUGGUCCCAGCCUCCUCGCUGGCGCCGGCUGGGCAACAUUCCGAGGGGACCGUCCCCUCGGUAAUGGCGAAUGGGACCCA

Variants of B1 are the subject of the series. As to the kind of experiment: self-cleavage, relative activity (ratio to wild type); higher = more cleavage; co-transcriptional.
As to GGCCGGCAUGGUCCCAGCCUCGUCGCUGGCGCCGGCUGGGCAACAUUCCGAGGGGACAGUCCCCUCGGUAAUGGCGAAUGGGACCCA [C22G C58A], the self-cleavage amounted to 0. As to GGCCGGCAUGGUCCCAGCCUCGUCGCUGGCGCCGGCUGGGCAACAUUCCGAGGGGACUGUCCCCUCGGUAAUGGCGAAUGGGACCCA [C22G C58U], the self-cleavage is 0.172.

Turning to GGCCGGCAUGGUCCCAGCCUCGUCGCUGGCGCCGGCUGGGCAACAUUCCGAGGGGACGGUCCCCUCGGUAAUGGCGAAUGGGACCCA [C22G C58G], the self-cleavage is 0.

GGCCGGCAUGGUCCCAGCCUCGUCGCUGGCGCCGGCUAGGCAACAUUCCGAGGGGACCGUCCCCUCGGUAAUGGCGAAUGGGACCCA [C22G G38A]: the self-cleavage came to 0.0231. The result for GGCCGGCAUGGUCCCAGCCUCGUCGCUGGCGCCGGCUCGGCAACAUUCCGAGGGGACCGUCCCCUCGGUAAUGGCGAAUGGGACCCA [C22G G38C] reads 0.391.

Turning to GGCCGGCAUGGUCCCAGCCUCGUCGCUGGCGCCGGCUGGGCAACAUUCCGAGGGGACCGUCCCCUCGGUAAUGGUGAAUGGGACCCA [C22G C75U], the self-cleavage was determined as 0.16. Turning to GGCCGGCAUGGUCCCAGCCUCGUCGCUGGCGCCGGCUGGGCGACAUUCCGAGGGGACCGUCCCCUCGGUAAUGGCGAAUGGGACCCA [C22G A42G], the self-cleavage is 0. As for GGCCGGCAUGGUCCCAGCCUCGUCGCUGGCGCCGGCUGGGCAACAUUGCGAGGGGACCGUCCCCUCGGUAAUGGCGAAUGGGACCCA [C22G C48G], the self-cleavage came out at 0.0489. With GGCCGGCAUGGUCCCAGCCUCGUCCCUGGCGCCGGCUGGGCAACAUUCCGAGGGGACCGUCCCCUCGGUAAUGGCGAAUGGGACCCA [C22G G25C], the self-cleavage came out at 0.0665. Take GGCCGGCAUGGUCCCAGCCUCGUCUCUGGCGCCGGCUGGGCAACAUUCCGAGGGGACCGUCCCCUCGGUAAUGGCGAAUGGGACCCA [C22G G25U]: the self-cleavage worked out at 0.102. On to GGCCGGCAUGGUCCCAGCCUCGUCGCUGGCGCCGGCUGGGCAACGUUCCGAGGGGACCGUCCCCUCGGUAAUGGCGAAUGGGACCCA [C22G A45G], for which the self-cleavage is 0. Take GGCCGGCAUGGUCCCAGCCUCGUCGCUGGCGCCGGCUGGGCAACCUUCCGAGGGGACCGUCCCCUCGGUAAUGGCGAAUGGGACCCA [C22G A45C]: the self-cleavage worked out at 0.0489.

As to GGCCGGCAUGGUCCCAGCCUCGUCGCUGGCGCCGGCUGGGCACCAUUCCGAGGGGACCGUCCCCUCGGUAAUGGCGAAUGGGACCCA [C22G A43C], the self-cleavage turned out to be 0.0811. In the case of GGCCGGCAUGGUCCCAGCCUCGUCGCUGGCGCCGGCUGGGCAGCAUUCCGAGGGGACCGUCCCCUCGGUAAUGGCGAAUGGGACCCA [C22G A43G], the self-cleavage is 0. As to GGCCGGCAUGGUCCCAGCCUCGUCGCUGGCGCCGGCUGGGCAUCAUUCCGAGGGGACCGUCCCCUCGGUAAUGGCGAAUGGGACCCA [C22G A43U], the self-cleavage is 0.115. On to GGCCGGCAUGGUCCCAGCCUCGUCGCUGGCUCCGGCUGGGCAACAUUCCGAGGGGACCGUCCCCUCGGUAAUGGCGAAUGGGACCCA [C22G G31U], for which the self-cleavage was determined as 0.0361. Regarding GGCCGGCAUGGUCCCAGCCUCGUUGCUGGCGCCGGCUGGGCAACAUUCCGAGGGGACCGUCCCCUCGGUAAUGGCGAAUGGGACCCA [C22G C24U], the self-cleavage worked out at 0.104. For GGCCGGCAUGGUCCCAGCCUCGUCGCUGGCGCCGGCUGGGCAACAUUCCGAGGGGACCGUCCCCUGGGUAAUGGCGAAUGGGACCCA [C22G C66G], the self-cleavage came to 0.0845. As for GGCCGGCAUGGUCCCAGCCUCGUCGCUGGCGCCGGCUGGGCAACAUUCCGAGGGGACCGUCACCUCGGUAAUGGCGAAUGGGACCCA [C22G C62A], the self-cleavage was 0.106.

For GGCCGGCAUGGUCCCAGCCUCGUCGCUGGCGCCGGCUGGGCAACAUUCCGAGGGGACCGUCGCCUCGGUAAUGGCGAAUGGGACCCA [C22G C62G], the self-cleavage is 0.111. GGCCGGCAUGGUCCCAGCCUCGUCGCUCGCGCCGGCUGGGCAACAUUCCGAGGGGACCGUCCCCUCGGUAAUGGCGAAUGGGACCCA [C22G G28C]: the self-cleavage is 0. The same measure for GGCCGGCAUGGUCCCAGCCUCGUCGCUGGCGCCGGCUGGGCAACAUUCCGAGGGGACCGUCCCCUCGGUAAUGGCGAAUGGGACUCA [C22G C85U]: 0.0845; for GGCCGGCAUGGUCCCAGCCUCGUCGCUGGCGCCGGCUGGGCAACAUUCCGAGGGGACCGUCCCCUCGGUAAUGGCGAAUGGGACACA [C22G C85A]: 0. Regarding GGCCGGCAUGGUCCCAGCCUCGUCGAUGGCGCCGGCUGGGCAACAUUCCGAGGGGACCGUCCCCUCGGUAAUGGCGAAUGGGACCCA [C22G C26A], the self-cleavage is 0.156. For GGCCGGCAUGGUCCCAGCCUCGUCGCUGGCGCCGGCUGGGCAACAUUCCGAGGGGACCGUCCCCUCGGUAAUGGCGGAUGGGACCCA [C22G A77G], the self-cleavage is 0.0504. On to GGCCGGCAUGGUCCCAGCCUCGUCGCUGGCGCCGGCUGGGCAACAUUCCGAGGGGACCGUCCCCUCGGUAAUGGCGUAUGGGACCCA [C22G A77U], for which the self-cleavage came out at 0.162. With GGCCGGCAUGGUCCCAGCCUCGUCGCUGGCGCCGGCUGGGCAACAUUCCGAGGGGACCGUCCCCUCGGUAAUGGCGAAUGGGUCCCA [C22G A83U], the self-cleavage turned out to be 0.0462.

On to GGCCGGCAUGGUCCCAGCCUCGUCGCUGGCGCCGGCUGGGCAACAUUCCGAGGGGACCGUCCCCUCGGUUAUGGCGAAUGGGACCCA [C22G A70U], for which the self-cleavage turned out to be 0.173. On to GGCCGGCAUGGUCCCAGCCUCGUCGCUGGCGCCGGCUGGGCAACAUUCCGAGGGGACCGUCCCCUCGGUGAUGGCGAAUGGGACCCA [C22G A70G], for which the self-cleavage came out at 0.185.

Take GGCCGGCAUGGUCCCAGCCUCGUCGCUGGCGCCGGCUGGGCAACAUUCCGAGGGGACCGUCCCAUCGGUAAUGGCGAAUGGGACCCA [C22G C64A]: the self-cleavage stood at 0.125. Consider GGCCGGCAUGGUCCCAGCCUCGUCGCUGGCGCCGGCUGGGCAACAUUCCGAGGGGACCGUCCCGUCGGUAAUGGCGAAUGGGACCCA [C22G C64G], for which the self-cleavage came out at 0.0723. The same measure for GGCCGGCAUGGUCCCAGCCUCGUCGCUGGCGCCCGCUGGGCAACAUUCCGAGGGGACCGUCCCCUCGGUAAUGGCGAAUGGGACCCA [C22G G34C]: 0.0811.

Source of the values: the RNAGym collection of RNA variant scans (doi:10.7554/elife.80360).
